Each substance was assayed on PthA4AT (7.5-repeat TAL effector) (Xanthomonas citri ssp. citri variant AT) (assay: PBM). Settings: not stated; PBM performed as in Godoy et al. 2011.

Compared with PBM probes with ATATCACCT, PBM probes with ATTATTACC is lower in binding signal: 0.46 E-score for the first, 0.456 E-score for the second.

Compared with PBM probes with TATAACCTT, PBM probes with TATCACCTT is higher in binding signal: 0.462 E-score for the first, 0.476 E-score for the second.

Compared with PBM probes with TATCGCCTT, PBM probes with TATTACCCC is higher in binding signal: 0.454 E-score for the first, 0.458 E-score for the second.

Going from PBM probes with TATTACCTC to PBM probes with TATTACCTT, the binding signal rises from 0.466 E-score to 0.481 E-score.

Compared with PBM probes with TTATCACCT, PBM probes with TTATTACCC is lower in binding signal: 0.464 E-score for the first, 0.46 E-score for the second.

PBM probes with TTATTACCT was tested, and the binding signal was 0.476 E-score.

Reference: article PMC6792138
